Measured values reported in paper PMC5505701, “Somatostatin binds to the human amyloid β peptide and favors the formation of distinct oligomers” (eLife, 2017).

Legend:
[1] = test system: oligomeric versus monomeric Aβ1-42 (Aβ1-42-biotin bait); experiment: Affinity capture interactome Experiment III (oAβ1-42-biotin vs mAβ1-42-biotin); conditions: oligomeric versus monomeric bait; human frontal lobe digitonin extract; TMT; pH 8.0, 4°C overnight
[2] = test system: oligomeric Aβ1-42 (oAβ1-42-biotin bait); experiment: Affinity capture interactome Experiment II (C-terminally tethered oAβ1-42-biotin vs biotin); conditions: enrichment relative to biotin-only negative control; human frontal lobe digitonin extract; TMT; pH 8.0, 4°C overnight

B1: Phosphoglycerate kinase 1: human brain protein (protein, UniProt P00558 2-417, looked up)
Phosphoglycerate kinase 1: SLSNKLTLDKLDVKGKRVVMRVDFNVPMKNNQITNNQRIKAAVPSIKFCLDNGAKSVVLMSHLGRPDGVPMPDKYSLEPVAVELKSLLGKDVLFLKDCVGPEVEKACANPAAGSVILLENLRFHVEEEGKGKDASGNKVKAEPAKIEAFRASLSKLGDVYVNDAFGTAHRAHSSMVGVNLPQKAGGFLMKKELNYFAKALESPERPFLAILGGAKVADKIQLINNMLDKVNEMIIGGGMAFTFLKVLNNMEIGTSLFDEEGAKIVKDLMSKAEKNGVKITLPVDFVTADKFDENAKTGQATVASGIPAGWMGLDCGPESSKKYAEAVTRAKQIVWNGPVGVFEWEAFARGTKALMDEVVKATSRGCITIIGGGDTATCCAKWNTEDKVSHVSTGGGASLELLEGKVLPGVDALSNI
With B1 the “Experiment III oAβ1-42-B/mAβ1-42-B Ratio” value [1] was 1.73 and the “Experiment II oAβ1-42-B/B Ratio” value [2] was 1.38.

B2: Peroxiredoxin-6: human brain protein (protein, UniProt P30041 2-224, looked up)
Peroxiredoxin-6: PGGLLLGDVAPNFEANTTVGRIRFHDFLGDSWGILFSHPRDFTPVCTTELGRAAKLAPEFAKRNVKLIALSIDSVEDHLAWSKDINAYNCEEPTEKLPFPIIDDRNRELAILLGMLDPAEKDEKGMPVTARVVFVFGPDKKLKLSILYPATTGRNFDEILRVVISLQLTAEKRVATPVDWKDGDSVMVLPTIPEEEAKKLFPKGVFTKELPSGKKYLRYTPQP
In the case of B2, the “Experiment III oAβ1-42-B/mAβ1-42-B Ratio” value [1] is reported as 1.54 and the “Experiment II oAβ1-42-B/B Ratio” value [2] is reported as 1.42.

B3: Endophilin-A1: human brain protein (protein, UniProt Q99962 1-352, looked up)
Endophilin-A1: MSVAGLKKQFHKATQKVSEKVGGAEGTKLDDDFKEMERKVDVTSRAVMEIMTKTIEYLQPNPASRAKLSMINTMSKIRGQEKGPGYPQAEALLAEAMLKFGRELGDDCNFGPALGEVGEAMRELSEVKDSLDIEVKQNFIDPLQNLHDKDLREIQHHLKKLEGRRLDFDYKKKRQGKIPDEELRQALEKFDESKEIAESSMFNLLEMDIEQVSQLSALVQAQLEYHKQAVQILQQVTVRLEERIRQASSQPRREYQPKPRMSLEFPTGDSTQPNGGLSHTGTPKPSGVQMDQPCCRALYDFEPENEGELGFKEGDIITLTNQIDENWYEGMLHGHSGFFPINYVEILVALPH
For B3, the “Experiment III oAβ1-42-B/mAβ1-42-B Ratio” value [1] was 1.07 and the “Experiment II oAβ1-42-B/B Ratio” value [2] was 1.28.

B4: Acetyl-CoA acetyltransferase, mitochondrial: human brain protein (protein, UniProt P24752 34-427, looked up)
Acetyl-CoA acetyltransferase, …: VSKPTLKEVVIVSATRTPIGSFLGSLSLLPATKLGSIAIQGAIEKAGIPKEEVKEAYMGNVLQGGEGQAPTRQAVLGAGLPISTPCTTINKVCASGMKAIMMASQSLMCGHQDVMVAGGMESMSNVPYVMNRGSTPYGGVKLEDLIVKDGLTDVYNKIHMGSCAENTAKKLNIARNEQDAYAINSYTRSKAAWEAGKFGNEVIPVTVTVKGQPDVVVKEDEEYKRVDFSKVPKLKTVFQKENGTVTAANASTLNDGAAALVLMTADAAKRLNVTPLARIVAFADAAVEPIDFPIAPVYAASMVLKDVGLKKEDIAMWEVNEAFSLVVLANIKMLEIDPQKVNINGGAVSLGHPIGMSGARIVGHLTHALKQGEYGLASICNGGGGASAMLIQKL
For B4, the “Experiment III oAβ1-42-B/mAβ1-42-B Ratio” value [1] was 2.45 and the “Experiment II oAβ1-42-B/B Ratio” value [2] was 2.64.

B5: Heat shock protein, 60 kDa, mitochondrial: human brain protein (protein, UniProt P10809 27-573, looked up)
60 kDa heat shock protein, …: AKDVKFGADARALMLQGVDLLADAVAVTMGPKGRTVIIEQSWGSPKVTKDGVTVAKSIDLKDKYKNIGAKLVQDVANNTNEEAGDGTTTATVLARSIAKEGFEKISKGANPVEIRRGVMLAVDAVIAELKKQSKPVTTPEEIAQVATISANGDKEIGNIISDAMKKVGRKGVITVKDGKTLNDELEIIEGMKFDRGYISPYFINTSKGQKCEFQDAYVLLSEKKISSIQSIVPALEIANAHRKPLVIIAEDVDGEALSTLVLNRLKVGLQVVAVKAPGFGDNRKNQLKDMAIATGGAVFGEEGLTLNLEDVQPHDLGKVGEVIVTKDDAMLLKGKGDKAQIEKRIQEIIEQLDVTTSEYEKEKLNERLAKLSDGVAVLKVGGTSDVEVNEKKDRVTDALNATRAAVEEGIVLGGGCALLRCIPALDSLTPANEDQKIGIEIIKRTLKIPAMTIAKNAGVEGSLIVEKIMQSSSEVGYDAMAGDFVNMVEKGIIDPTKVVRTALLDAAGVASLLTTAEVVVTEIPKEEKDPGMGAMGGMGGGMGGGMF
B5 was tested, and the “Experiment III oAβ1-42-B/mAβ1-42-B Ratio” value [1] was 4.21 and the “Experiment II oAβ1-42-B/B Ratio” value [2] was 2.27.

B6: Tubulin beta-3 chain: human brain protein (protein, UniProt Q13509 1-450, looked up)
Tubulin beta-3 chain: MREIVHIQAGQCGNQIGAKFWEVISDEHGIDPSGNYVGDSDLQLERISVYYNEASSHKYVPRAILVDLEPGTMDSVRSGAFGHLFRPDNFIFGQSGAGNNWAKGHYTEGAELVDSVLDVVRKECENCDCLQGFQLTHSLGGGTGSGMGTLLISKVREEYPDRIMNTFSVVPSPKVSDTVVEPYNATLSIHQLVENTDETYCIDNEALYDICFRTLKLATPTYGDLNHLVSATMSGVTTSLRFPGQLNADLRKLAVNMVPFPRLHFFMPGFAPLTARGSQQYRALTVPELTQQMFDAKNMMAACDPRHGRYLTVATVFRGRMSMKEVDEQMLAIQSKNSSYFVEWIPNNVKVAVCDIPPRGLKMSSTFIGNSTAIQELFKRISEQFTAMFRRKAFLHWYTGEGMDEMEFTEAESNMNDLVSEYQQYQDATAEEEGEMYEDDEEESEAQGPK
For B6, the “Experiment III oAβ1-42-B/mAβ1-42-B Ratio” value [1] was 2.04 and the “Experiment II oAβ1-42-B/B Ratio” value [2] was 1.18.

B7: Cofilin-2: human brain protein (protein, UniProt Q9Y281 2-166, looked up)
Cofilin-2: ASGVTVNDEVIKVFNDMKVRKSSTQEEIKKRKKAVLFCLSDDKRQIIVEEAKQILVGDIGDTVEDPYTSFVKLLPLNDCRYALYDATYETKESKKEDLVFIFWAPESAPLKSKMIYASSKDAIKKKFTGIKHEWQVNGLDDIKDRSTLGEKLGGNVVVSLEGKPL
In the case of B7, the “Experiment III oAβ1-42-B/mAβ1-42-B Ratio” value [1] is reported as 6.93 and the “Experiment II oAβ1-42-B/B Ratio” value [2] is reported as 1.81.

B8: Peroxiredoxin-2: human brain protein (protein, UniProt P32119 2-198, looked up)
Peroxiredoxin-2: ASGNARIGKPAPDFKATAVVDGAFKEVKLSDYKGKYVVLFFYPLDFTFVCPTEIIAFSNRAEDFRKLGCEVLGVSVDSQFTHLAWINTPRKEGGLGPLNIPLLADVTRRLSEDYGVLKTDEGIAYRGLFIIDGKGVLRQITVNDLPVGRSVDEALRLVQAFQYTDEHGEVCPAGWKPGSDTIKPNVDDSKEYFSKHN
In the case of B8, the “Experiment III oAβ1-42-B/mAβ1-42-B Ratio” value [1] is reported as 2.40 and the “Experiment II oAβ1-42-B/B Ratio” value [2] is reported as 1.51.

B9: ATP synthase subunit alpha, mitochondrial: human brain protein (protein, UniProt P25705 44-553, looked up)
ATP synthase F(1) complex …: QKTGTAEMSSILEERILGADTSVDLEETGRVLSIGDGIARVHGLRNVQAEEMVEFSSGLKGMSLNLEPDNVGVVVFGNDKLIKEGDIVKRTGAIVDVPVGEELLGRVVDALGNAIDGKGPIGSKTRRRVGLKAPGIIPRISVREPMQTGIKAVDSLVPIGRGQRELIIGDRQTGKTSIAIDTIINQKRFNDGSDEKKKLYCIYVAIGQKRSTVAQLVKRLTDADAMKYTIVVSATASDAAPLQYLAPYSGCSMGEYFRDNGKHALIIYDDLSKQAVAYRQMSLLLRRPPGREAYPGDVFYLHSRLLERAAKMNDAFGGGSLTALPVIETQAGDVSAYIPTNVISITDGQIFLETELFYKGIRPAINVGLSVSRVGSAAQTRAMKQVAGTMKLELAQYREVAAFAQFGSDLDAATQQLLSRGVRLTELLKQGQYSPMAIEEQVAVIYAGVRGYLDKLEPSKITKFENAFLSHVVSQHQALLGTIRADGKISEQSDAKLKEIVTNFLAGFEA
With B9 the “Experiment III oAβ1-42-B/mAβ1-42-B Ratio” value [1] was 4.88 and the “Experiment II oAβ1-42-B/B Ratio” value [2] was 2.16.
